# Laboratory results: paper PMC8908544 (Structure (London, England : 1993), 2022)
# B1: NB1B11 (VHH)
# VHH: QVQLQESGGGSVQAGGSLRLSCAASGYTVSVGCMAWFRQAPGKEREGVAGIDASGITKYSDSVKGRFTISKDNAKNALDLQMNGLKPEDTAMYHCAAGLVRGSCTDVLDHPSYLGVWGQGTQVTVSS
# B2: NB1C6 (VHH)
# VHH: QVQLQESGGGSVQAGGRLRLSCAASGDTYSSYCMGWFRQAPGKEREGVAAIYIGGDNTYYADSAKGRFTISQDYDKNTAYLQMNSLKSEDTAMYYCAAELFCPWPDIGTMSPAEYKYWGQGTQVTVSS
# B3: NB1A7 (VHH)
# VHH: QVQLQESGGGSVQAGGSLRLSCAASGYTFSSYCLGWFRQAPGKEREGVAAIDSDGSTSYADSVKGRFTISRDNAKNTLYLQMNSLKPEDTAMYYCAAEGGPSLSYCTGGYGFLLSGLMYNSWGQGTQVTVSS
# B4: format II: bi-paratopic and multivalent nanobody NB1A7-(GGGGS)4-NB1B11-Fc (bispecific antibody)
# chain: QVQLQESGGGSVQAGGSLRLSCAASGYTFSSYCLGWFRQAPGKEREGVAAIDSDGSTSYADSVKGRFTISRDNAKNTLYLQMNSLKPEDTAMYYCAAEGGPSLSYCTGGYGFLLSGLMYNSWGQGTQVTVSSGGGGSGGGGSGGGGSGGGGSQVQLQESGGGSVQAGGSLRLSCAASGYTVSVGCMAWFRQAPGKEREGVAGIDASGITKYSDSVKGRFTISKDNAKNALDLQMNGLKPEDTAMYHCAAGLVRGSCTDVLDHPSYLGVWGQGTQVTVSSGGGGS
# Tests used:
# [1] = target: T1, receptor binding domain (RBD) of SARS-CoV-2 spike protein (SARS-CoV-2, UniProt P0DTC2 333-523); assay: ELISA
# [2] = target: T1, receptor binding domain (RBD) of …; assay: BLI
# SARS-CoV RBD (306-527) = SARS-CoV RBD (306-527) (SARS-CoV, UniProt P59594 306-527); assay: BLI
Binder,IC50 [1] [nM],Kd [2] [nM],Kd (SARS-CoV RBD (306-527)) [nM]
B1,709,6.76 ± 0.027,
B2,,5.07 ± 0.05,
B3,,,471
B4,37.5,< 0.001,
